# Target: human CD4, membrane-bound on the surface of cells (human, UniProt P01730 26-458)
# Test: cell-based or functional assay
binder,measurement,value
"murine monoclonal antibody B4 (mAb B4) (antibody, V domains shown) VH: QVQLQQSGPELVKPGASVRMSCKASGYTFTDYVIHWVKQRTGQGLEWIGEIYPGSGSAYSNAKFKDKATLTADKSSNTAYMQLSSLTSEDSAVYFCARRGNGTGFAYWGQGTLVTVSA VL: DIVLTQSPASLAVSLGQRATISCKAGQSVDYDGDSYMNWYQQKPGQPPKLLIYVASNLESGIPARFSGSGSGTDFTLNIHPVEEEDAATYYCQQSYKDPLTFGAGTKLELK","IC50, HIV entry inhibition (PhenoSense), control virus 92HT594",0.021 µg/mL
same,"IC50, HIV entry inhibition (PhenoSense), control virus JRCSF",0.034 µg/mL
same,"IC50, HIV entry inhibition (PhenoSense), control virus JRFL",0.074 µg/mL
same,"IC50, HIV entry inhibition (PhenoSense), isolate 92/RW/008, clade A",0.026 µg/mL
same,"IC50, HIV entry inhibition (PhenoSense), isolate 92/RW/024, clade A",0.055 µg/mL
same,"IC50, HIV entry inhibition (PhenoSense), isolate 92/TH/005, clade EA",0.012 µg/mL
same,"IC50, HIV entry inhibition (PhenoSense), isolate 92/TH/006, clade EA",0.022 µg/mL
same,"IC50, HIV entry inhibition (PhenoSense), isolate 92/TH/007, clade EA",0.013 µg/mL
same,"IC50, HIV entry inhibition (PhenoSense), isolate 92/TH/009, clade EA",0.021 µg/mL
same,"IC50, HIV entry inhibition (PhenoSense), isolate 92/TH/019, clade EA",0.022 µg/mL
same,"IC50, HIV entry inhibition (PhenoSense), isolate 92/TH/020, clade EA",0.015 µg/mL
same,"IC50, HIV entry inhibition (PhenoSense), isolate 92/TH/021, clade EA",0.017 µg/mL
same,"IC50, HIV entry inhibition (PhenoSense), isolate 92/TH/022, clade EA",0.012 µg/mL
same,"IC50, HIV entry inhibition (PhenoSense), isolate 92/TH/024, clade EA",0.01 µg/mL
same,"IC50, HIV entry inhibition (PhenoSense), isolate 92/UG/001, clade D",0.018 µg/mL
same,"IC50, HIV entry inhibition (PhenoSense), isolate 92/UG/005, clade D",0.019 µg/mL
same,"IC50, HIV entry inhibition (PhenoSense), isolate 92/UG/021, clade D",0.017 µg/mL
same,"IC50, HIV entry inhibition (PhenoSense), isolate 92/UG/024, clade D",0.04 µg/mL
same,"IC50, HIV entry inhibition (PhenoSense), isolate 92/UG/035, clade D",0.011 µg/mL
same,"IC50, HIV entry inhibition (PhenoSense), isolate 92/UG/038, clade D",0.014 µg/mL
same,"IC50, HIV entry inhibition (PhenoSense), isolate 92/UG/046, clade D",0.015 µg/mL
same,"IC50, HIV entry inhibition (PhenoSense), isolate 92/UG/053, clade D",0.02 µg/mL
same,"IC50, HIV entry inhibition (PhenoSense), isolate 92/UG/065, clade D",0.015 µg/mL
same,"IC50, HIV entry inhibition (PhenoSense), isolate 93/BR/019, clade BF",0.013 µg/mL
same,"IC50, HIV entry inhibition (PhenoSense), isolate 93/BR/020, clade F",0.024 µg/mL
same,"IC50, HIV entry inhibition (PhenoSense), isolate 93/IN/101, clade C",0.016 µg/mL
same,"IC50, HIV entry inhibition (PhenoSense), isolate 93/RW/029, clade A",0.019 µg/mL
same,"IC50, HIV entry inhibition (PhenoSense), isolate 93/TH/057, clade E",0.023 µg/mL
same,"IC50, HIV entry inhibition (PhenoSense), isolate 93/TH/305, clade E",0.021 µg/mL
same,"IC50, HIV entry inhibition (PhenoSense), isolate 93/UG/067, clade D",0.016 µg/mL
same,"IC50, HIV entry inhibition (PhenoSense), isolate 93/UG/070, clade D",0.011 µg/mL
same,"IC50, HIV entry inhibition (PhenoSense), isolate 93/UG/077, clade A",0.012 µg/mL
same,"IC50, HIV entry inhibition (PhenoSense), isolate 93/UG/082, clade D",0.016 µg/mL
same,"IC50, HIV entry inhibition (PhenoSense), isolate 93/UG/086, clade D",0.015 µg/mL
same,"IC50, HIV entry inhibition (PhenoSense), isolate 94/UG/103, clade A",0.021 µg/mL
same,"IC50, HIV entry inhibition (PhenoSense), isolate 94/UG/105, clade D",0.021 µg/mL
same,"IC50, HIV entry inhibition (PhenoSense), isolate 94/UG/114, clade D",0.015 µg/mL
same,"IC50, HIV entry inhibition (PhenoSense), isolate 94/UG/117, clade D",0.017 µg/mL
same,"IC50, HIV entry inhibition (PhenoSense), isolate 94/UG/118, clade D",0.02 µg/mL
same,"IC50, HIV entry inhibition (PhenoSense), isolate 10215-6, clade C",0.018 µg/mL
same,"IC50, HIV entry inhibition (PhenoSense), isolate 10362, clade C",0.02 µg/mL
same,"IC50, HIV entry inhibition (PhenoSense), isolate 11657-3, clade C",0.025 µg/mL
same,"IC50, HIV entry inhibition (PhenoSense), isolate 20635-4, clade C",0.02 µg/mL
same,"IC50, HIV entry inhibition (PhenoSense), isolate 21068, clade C",0.011 µg/mL
same,"IC50, HIV entry inhibition (PhenoSense), isolate CA1, clade A",0.011 µg/mL
same,"IC50, HIV entry inhibition (PhenoSense), isolate CA2, clade A",0.018 µg/mL
same,"IC50, HIV entry inhibition (PhenoSense), isolate CA3, clade A",0.019 µg/mL
same,"IC50, HIV entry inhibition (PhenoSense), isolate CC1, clade C",0.016 µg/mL
same,"IC50, HIV entry inhibition (PhenoSense), isolate CC2, clade C",0.021 µg/mL
same,"IC50, HIV entry inhibition (PhenoSense), isolate CC3, clade C",0.012 µg/mL
same,"IC50, HIV entry inhibition (PhenoSense), isolate CC4, clade C",0.013 µg/mL
same,"IC50, HIV entry inhibition (PhenoSense), isolate CC5, clade C",0.019 µg/mL
same,"IC50, HIV entry inhibition (PhenoSense), isolate CC6, clade C",0.018 µg/mL
same,"IC50, HIV entry inhibition (PhenoSense), isolate CC7, clade C",0.013 µg/mL
same,"IC50, HIV entry inhibition (PhenoSense), isolate CC8, clade C",0.019 µg/mL
same,"IC50, HIV entry inhibition (PhenoSense), isolate CC9, clade C",0.02 µg/mL
same,"IC50, HIV entry inhibition (PhenoSense), isolate CC10, clade C",0.015 µg/mL
same,"IC50, HIV entry inhibition (PhenoSense), isolate CD1, clade D",0.016 µg/mL
same,"IC50, HIV entry inhibition (PhenoSense), isolate CF2, clade F",0.016 µg/mL
same,"IC50, HIV entry inhibition (PhenoSense), isolate CF3, clade F",0.024 µg/mL
same,"IC50, HIV entry inhibition (PhenoSense), isolate CF4, clade F",0.019 µg/mL
same,"IC50, HIV entry inhibition (PhenoSense), isolate CF5, clade F",0.018 µg/mL
same,"IC50, HIV entry inhibition (PhenoSense), isolate CF6, clade F",0.018 µg/mL
same,"IC50, HIV entry inhibition (PhenoSense), isolate CF7, clade F",0.019 µg/mL
same,"IC50, HIV entry inhibition (PhenoSense), isolate CF8, clade F",0.017 µg/mL
same,"IC50, HIV entry inhibition (PhenoSense), isolate CG1, clade G",0.018 µg/mL
same,"IC50, HIV entry inhibition (PhenoSense), isolate CG2, clade G",0.027 µg/mL
same,"IC50, HIV entry inhibition (PhenoSense), isolate CG3, clade G",0.016 µg/mL
same,"IC50, HIV entry inhibition (PhenoSense), isolate CG4, clade G",0.013 µg/mL
same,"IC50, HIV entry inhibition (PhenoSense), isolate CJ1, clade J",0.018 µg/mL
same,"IC50, HIV entry inhibition (PhenoSense), isolate CJ2, clade J",0.019 µg/mL
same,"IC50, HIV entry inhibition (PhenoSense), isolate CMU02, clade EA",0.011 µg/mL
same,"IC50, HIV entry inhibition (PhenoSense), isolate CMU06, clade E",0.026 µg/mL
same,"IC50, HIV entry inhibition (PhenoSense), isolate MW/93/959, clade C",0.019 µg/mL
same,"IC50, HIV entry inhibition (PhenoSense), isolate MW/93/960, clade C",0.01 µg/mL
same,"IC50, HIV entry inhibition (PhenoSense), isolate QZ4589, clade E?",0.036 µg/mL
same,"average IC50, HIV entry inhibition (PhenoSense), all viruses of the table",0.018 µg/mL

# From patent US20190194326A1 (UBI US, published 2019)
